# Results published in publication PMC12881670, “Investigation into ligand selectivity and bias at the formyl peptide receptor family” (The Journal of Pharmacology and Experimental Therapeutics, 2025).
# Where no end group is shown, it is not given here. [ ]: non-standard residue; d: D form.
# T1: FLAG-tagged human FPR1 (Hs_FPR1) (human, UniProt P21462 1-350)
# T1 construct: human formyl peptide receptor 1; cDNA purchased (cDNA.org); source: HEK293, stably expressed, on cells; not shown: FLAG, N-terminal, kept
# T1 sequence (looked up): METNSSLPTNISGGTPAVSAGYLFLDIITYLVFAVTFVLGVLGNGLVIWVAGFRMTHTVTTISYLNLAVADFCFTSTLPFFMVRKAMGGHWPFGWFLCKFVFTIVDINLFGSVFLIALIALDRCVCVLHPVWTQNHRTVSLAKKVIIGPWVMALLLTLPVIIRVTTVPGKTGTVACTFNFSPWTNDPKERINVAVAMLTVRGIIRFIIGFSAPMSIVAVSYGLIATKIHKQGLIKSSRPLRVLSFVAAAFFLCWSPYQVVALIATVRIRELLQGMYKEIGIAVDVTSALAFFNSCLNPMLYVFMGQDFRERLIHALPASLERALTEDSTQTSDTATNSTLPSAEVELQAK
# T2: FLAG-tagged human FPR2 (Hs_FPR2) (human, UniProt P25090 1-351)
# T2 construct: human formyl peptide receptor 2; also called hFPR2; source: HEK293, stably expressed, on cells; not shown: FLAG, N-terminal, kept
# T2 sequence (looked up): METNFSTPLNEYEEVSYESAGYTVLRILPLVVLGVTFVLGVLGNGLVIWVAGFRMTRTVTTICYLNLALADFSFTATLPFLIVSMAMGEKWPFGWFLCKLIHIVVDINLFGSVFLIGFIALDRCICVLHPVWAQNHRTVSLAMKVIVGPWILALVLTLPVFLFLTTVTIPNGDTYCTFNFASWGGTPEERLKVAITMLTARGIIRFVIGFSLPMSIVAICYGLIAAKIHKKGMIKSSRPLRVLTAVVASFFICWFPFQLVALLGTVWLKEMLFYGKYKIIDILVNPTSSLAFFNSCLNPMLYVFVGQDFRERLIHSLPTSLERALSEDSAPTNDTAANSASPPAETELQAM
# T3: FLAG-tagged mouse Fpr2 (Mm_Fpr2) (mouse, UniProt O88536 1-351)
# T3 construct: mouse formyl peptide receptor 2; cDNA purchased (ThermoFisher); source: HEK293, stably expressed, on cells; not shown: FLAG, N-terminal, kept
# T3 sequence (looked up): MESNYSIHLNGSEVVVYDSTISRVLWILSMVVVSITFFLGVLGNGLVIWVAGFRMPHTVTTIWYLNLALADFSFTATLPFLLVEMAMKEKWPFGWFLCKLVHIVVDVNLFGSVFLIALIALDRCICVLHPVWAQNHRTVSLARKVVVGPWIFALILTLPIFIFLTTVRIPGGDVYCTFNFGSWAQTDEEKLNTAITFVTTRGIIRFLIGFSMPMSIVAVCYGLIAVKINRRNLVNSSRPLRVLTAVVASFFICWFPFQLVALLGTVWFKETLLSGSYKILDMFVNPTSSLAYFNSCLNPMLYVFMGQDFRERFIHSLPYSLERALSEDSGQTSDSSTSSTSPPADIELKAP
# B1: WKYMVm (peptide)
# peptide: WKYMV[dM]
# notes: the last residue is the D form; the bought peptide is probably also an amide (surmise); source: bought: Tocris
# Key:
# Experiment in all cases: flow cytometry on cells; competition binding: HEK293 cells stably expressing the receptor, lifted in PBS, on ice 90 min with 10 nM K(5/6-FAM)-WKYMVm and increasing unlabeled ligand; mean fluorescence of 5000 cells as % of that without competitor; One site-Fit logIC50
# [1] = target: T1, FLAG-tagged human FPR1 (Hs_FPR1)
# [2] = target: T2, FLAG-tagged human FPR2 (Hs_FPR2)
# [3] = target: T3, FLAG-tagged mouse Fpr2 (Mm_Fpr2)
binder,measurement,setting,value
B1,Log IC50,[1],-7.42 log M
same,Max Comp (%),[1],96.8%
same,Log IC50,[2],-7.7 log M
same,Max Comp (%),[2],100%
same,Log IC50,[3],-7.18 log M
same,Max Comp (%),[3],97.5%
